From US20060141451A1 (ORTHO MCNEIL PHARMACEUTICAL, published 2006)
No end group written: not given here.

Assays:
[1] = target: T1, guinea pig proteinase-activated receptor 4 (PAR-4) (guinea pig (Cavia porcellus)); assay: cell-based or functional assay
T1 chain: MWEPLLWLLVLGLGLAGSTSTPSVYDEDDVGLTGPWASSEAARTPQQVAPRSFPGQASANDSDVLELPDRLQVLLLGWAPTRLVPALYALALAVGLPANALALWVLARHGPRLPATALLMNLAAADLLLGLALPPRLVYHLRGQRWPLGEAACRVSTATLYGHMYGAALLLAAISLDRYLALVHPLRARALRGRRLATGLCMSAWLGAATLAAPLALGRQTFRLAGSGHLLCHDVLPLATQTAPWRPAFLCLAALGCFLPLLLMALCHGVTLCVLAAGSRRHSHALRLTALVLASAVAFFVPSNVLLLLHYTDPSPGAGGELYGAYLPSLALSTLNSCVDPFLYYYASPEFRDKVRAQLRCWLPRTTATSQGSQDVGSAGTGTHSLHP

[2] = target: T2, human PAR-4 (human, UniProt Q96RI0 48-385); assay: cell-based or functional assay
T2 sequence (looked up): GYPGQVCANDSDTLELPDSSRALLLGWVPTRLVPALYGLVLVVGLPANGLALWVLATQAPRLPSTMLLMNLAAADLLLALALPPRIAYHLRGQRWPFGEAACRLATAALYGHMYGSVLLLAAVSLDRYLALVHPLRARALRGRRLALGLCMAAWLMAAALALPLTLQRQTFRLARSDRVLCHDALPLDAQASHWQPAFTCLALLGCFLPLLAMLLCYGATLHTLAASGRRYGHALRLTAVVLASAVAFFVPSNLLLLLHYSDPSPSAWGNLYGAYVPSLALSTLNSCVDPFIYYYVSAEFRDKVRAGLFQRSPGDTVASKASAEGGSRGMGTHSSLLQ

Binder: SFPGQA-NH2 [guinea pig PAR-4 activating peptide SFPGQA-NH2]
- aggregation of guinea pig gel filtered platelets, EC50 [1]: 174 µM
- aggregation of human gel filtered platelets, EC50 [2]: 140 µM
